Reference: the DeepSol protein solubility set

Test: soluble on expression in E. coli; label from the status in PepcDB or PDB records

Row | Sequence | soluble on expression in E. coli
1 | SGAAGPSSASVKEFQNLVDQHITPFVALSKKLAPEVGNQVEQLVKAIDAEKALINTASQSKKPSQETLLELIKPLNNFAAEVGKIRDSNRSSKFFNNLSAISESIGFLSWVVVEPTPGPHVAEMRGSAEFYTNRILKEFKGVNQDQVDWVSNYVNFLKDLEKYIKQYHTTGLTWNPKGGDAKSATP | soluble
2 | AIARGPEPGPQPTMEGDVLDTLEALGYKGPLLEEQALTKAAEGGLSSPEFSELCIWLGSQIKSLCNLEESITSAGRDDLESFQLEISGFLKEMACPYSVLISGDIKDRLKKKEDCLKLLLFLSTELQASQILQNKKHKNSQLDKNSEVYQEVQAMFDTLGIPKSTTSDIPHMLNQVESKVKDILSKVQKNHVGKPLLKMDLNSEQAEQLERINDALSCEYECRRRMLMKRLDVTVQSFGWSDRAKVKTDDIARIYQPKRYALSPKTTITMAHLLAAREDLSKIIRTSSGTSREKTACAINKVGVSFSTVENELMISYLMFLQILVYFSFMSW | soluble
3 | MGSDKIHHHHHHEEYFNAIRTNIQLSGVDIKVVGITSVKSNEGKSTTAASLAIAYARSGYKTVLVDADIRNSVMPGFFKPMTKITGLTDYLAGTTDLSQGLCDTDIPNLTVIESGKVSPNPTALLQSKSFENLLATLRRYYDYVIVDCPPLGLVIDAAIIAQKCDAMVAVVEAGNVKCSSLKKVKEQLEQTGTPFLGVILNKYDIATEKYGEYGNYGKKA | not soluble
4 | MAHHHHHHMKAGGGLVALLAQTVVAGDVNACCGVLRRVFSETLQEDRRLTALASNAARSVRRRSHHSAGTAPSFATAPAAATKTLSSSASSSSLSSSSALATSSGPDDVVNFARYAQHQRAQAHSFANAAAQAVLRTSFVPPDGVRPLAVAAAGTKGHPTDAEVPQSHRASSAFGAPTDTPIAQRVWKLARSTLSTDSALVKTSSLHVLCHTAQRTGYWEEALHFCEYLPQSPAPLFLSSLLRPDNVNPILQHCATRGWALDVTNAIRVLAEEHGSWSAALVVAQDAEHRLPCGEAYSLGVLVPYLAVSGATAQARQLFESGLAHGALIDPVLVQQLVMQTATLRQWETCLHMLQCLYRTQETAQLLPADADFFCRLMEVSPGWVTSLQLLHMARASDVKPNERTVAILLTQCDQAGAWREAAAVYDMAVKEDFIDSLAVGSTYHTLVRSFSAIQQWQKALEALSWMSKADDASLTAGMMELVTLCEQSGQWEAALSVGSTLMDSGVHLLSTQTSMALLFLCAKGAQWEFAMRLFDAQLHDVRVDPHPLSLCAVMQACVAARQWEAALRVYDAAKASQPRMVVPPLAHRIAVKACVSAGKWNLAIAVLDATRQDGLPLDNYSQRLGLWAAAIQGQWELSLAFFQGIPRRSRTPQDRMMVRHVTRAISPAVDAIALRFLQSH | not soluble
5 | QGLVPQGQTQVLQGGNKVPVVNIADPNSGGVSHNKFQQFNVANPGVVFNNGLTDGVSRIGGALTKNPNLTRQASAILAEVTDTSPSRLAGTLEVYGKGADLIIANPNGISVNGLSTLNASNLTLTTGRPSVNGGRIGLDVQQGTVTIERGGVNATGLGYFDVVARLVKLQGAVSSKQGKPLADIAVVAGANRYDHATRRATPIAAGARGAAAGAYAIDGTAAGAMYGKHITLVSSDSGLGVRQLGSLSSPSAITVSSQGEIALGDATVQRGPLSLKGAGVVSAGKLASGGGAVNVAGGGAV | soluble
6 | MAGLLKESMRIKMYMEGTVNGHYFKCEGEGDGNPFAGTQSMRIHVTEGAPLPFAFDILAPCCESRTFVHHTAEIPDFFKQSFPEGFTWERTTTYEDGGILTAHQDTSLEGNCLIYKVKVHGTNFPADGPVMKNKSGGWEPSTEVVYPENGVLCGRNVMALKVGDRHLICHHYTSYRSKKAVRALTMPGFHFTDIRLQMLRKKKDEYFELYEASVARYSDLPEKAN | soluble
7 | MGYTKKVYEGGSNVDQFVTRFLLKETANQIQSLLSSVESAVEAIEEQTSQLRQNHIKPSHSAAQTWCGSPTPASAPNHKLMAMEQGKTLPSATEDAKEEGLEAQISRLAELIGRLESKALWFDLQQRLSDEDGTNMHLQLVRQEMAVCPEQLSEFLDSLRQYLRGTTGVRNCFHITAVRLSDGFTFVIYEFWETEEAWKRHLQSPLCKAFRHVKVDTLSQPEALSRILVPAAWCTVGRD | not soluble
8 | MDTRTRHLKVSNCPNNSYALANVAAVSPNDFPNNIYIIIDNLFVFTTRHSNDIPPGTIGFNGNQRTWGGWSLNQDVQAKAFDLFKYSGKQSYLGSIDIDISFRARGKAVSTVFDQDELAKQFVRCYESQIFSPTQYLIMEFQGHFFDLKIRNVQAIDLGDIEPTSAVATGIETKGILTKQTQINFFKGR | soluble
9 | MVFRKYRAVKQWGKMDTRIFKEIYNSRNKRKMPAFEVPDAVKALGVPVFEPNEIFQLSNRKNLVEQAAKEHMENELKFTEPPQQHPLQKSHPAYIFEAAEPMSDGIAQAAVLTRSVVATGGLPDTILLNSAAKLEIDEEMVKDAILHGERYNPSLEKLPARFDPVMFWIRHPRLHGTPVIKKNNIILNNLLRHVVLGGLRTQALKQNFQFSTKILQKNSNFLWKIQKNLIFSDFRLKLKNFCRVNRDSPLSVYVSGGQYFSKNALVLRAQPHLTVQSADSTVTMPWAGPIDVKAVWRIFTKMFSFSSFSYQNSSIFHQKLSKIFSAEPLPDIYPISPVIDFSMDTIYNDDVLLTRRSQQQKTHIHSILWSREQDQKYPWTSEQNMANAILTTYAAAVAEATRNGATTELEKPLLVRGVQLVNGRLDLVAMQLNTLKPTSEAGNNDEKNIVWIEKGLRLYKPTPYYEQMDTVEKLDMTVFHKFVALMLGFGAPHAH | not soluble
10 | MGSDKIHHHHHHMATDASGGVGEKAKDHVHVPYEVVSYYAARVALLECMSVGATPFTFLVQNFSGDEPYQKMIDGINRALGEANQAQATIAGSTESNMVLEQSCLGVTVIGRVHQSALKIGITPKDAGIALLGKPLVGEEVVSQEKDVFPLKQFDELLQEEGVYEIIPVGSKGVKYELEVLAATNEWNTLQVPVNGNVDLTKSSGPATSLLITFDGTMEALLKAKYSSWWTTLASKIST | not soluble
11 | AHHHHHHGSKVLVTGFEPFGGEKINPTERIAKDLDGIKIGDAQVFGRVLPVVFGKAKEVLEKTLEEIKPDIAIHVGLAPGRSAISIERIAVNAIDARIPDNEGKKIEDEPIVPGAPTAYFSTLPIKKIMKKLHERGIPAYISNSAGLYLCNYVMYLSLHHSATKGYPKMSGFIHVPYIPEQIIDKIGKGQVPPSMCYEMELEAVKVAIEVALEELL | soluble
12 | MRLLVSCVDSGSIKEVLCNIGTDTSVQSALQPFHVAPHLAEGLKAYVDRMWVISEDEAILARNSGVVELVKISKHLKENEALQVDPKGESKNEKSLSDDLPKFDISEFEITSSVSDLFDDAKLESLSSKSVKRTKLVDGFVTLCPIKKDSSNNTFVAATKSGLLHIIKKGEDKKLIKLASLGLKAPVEFLQLYDLEDTDTDKYIFAYGGEENLIKLVEIDSSFQSLKQIWEAKNVKNDRLDMRVPVWPMALRFLEPSPGKTEKGKLNYQFAAITRWSHLTKYSTQHGRKPFAQIDLLPNREPLSQMEVFDAKGENVVSSLGNFQSETFNELNVITTDYKKNVFKFDGNGRMLGKVGRDDITGSSTYIHVHDGKYLLQGGLDRYVRIFDIKTNKMLVKVYVGSRINFIVMLDDVEIEMPLSPSAKAAKGKQKRKVTELEEDADELWNKLEGKVAASKASKKSKI | soluble
13 | MSLKQGLQLRLSQQLAMTPQLQQAIRLLQLSTLELQQELQQALESNPLLEQIDTHEEIDTRETQDSETLDTADALEQKEMPEELPLDASWDTIYTAGTPSGTSGDYIDDELPVYQGETTQTLQDYLMWQVELTPFSDTDRAIATSIVDAVDETGYLTVPLEDILESIGDEEIDIDEVEAVLKRIQRFDPVGVAAKDLRDCLLIQLSQFDKTTPWLEEARLIISDHLDLLANHDFRTLMRVTRLKEDVLKEAVNLIQSLDPRPGQSIQTGEPEYVIPDVLVRKHNGHWTVELNSDSIPRLQINQHYASMCNNARNDGDSQFIRSNLQDAKWLIKSLESRNDTLLRVSRCIVEQQQAFFEQGEEYMKPMVLADIAQAVEMHESTISRVTTQKYLHSPRGIFELKYFFSSHVNTEGGGEASSTAIRALVKKLIAAENPAKPLSDSKLTSLLSEQGIMVARRTVAKYRESLSIPPSNQRKQLVEGHHHHHH | soluble
14 | MSLDFEYVTGEEGLKKAIKRLENSPYLYLDTETTGDRIRLVQIGDEENTYVIDLYEIQDIEPLRKLINERGIVGHNLKFDLKYLYRYGIFPSATFDTMIASYLLGYERHSLNHIVSNLLGYSMDKSYQTSDWGASVLSDAQLKYAANDVIVLRELFPKMRDMLNELDAERGEELLKTRTAKIFDLKSPVAIVEMAFVREVAKLEINGFPVDVEELTNKLKAVERETQKRIQEFYIKYRVDPLSPKQLASLLTKKFKLNLPKTPKGNVSTDDKALTSYQDVEPVKLVLEIRKLKKIADKLKELKEHLKNGRVYPEFKQIGAVTGRMSSAHPNIQNIHRDMRGIFKAEEGNTFVISDFSQIELRIAAEYVKDPLMLDAFKKGKDMHRYTASVVLGKKEEEITKEERQLAKAINFGLIYGISAKGLAEYAKLGYGVEISLEEAQVLRERFFKNFKAFKEWHDRVKKELKEKGEVKGHTLLGRRFSANTFNDAVNYPIQGTGADLLKLAVLLFDANLQKKGIDAKLVNLVHDEIVVECEKEKAEEVKEILEKSMKTAGKIILKEVPVEVESVINERWTKEGHHHHHH | soluble
15 | MGSDKIHHHHHHMFISDLHIGDGSAKDDFFFDKELVNFIEDMSQTEDVELFVVGDGFEILESRTVKEIGLVSFEEVVETLDETVIDEIEKKHSEVFETLKKFSRRHRVYYVVGNHDYHILKNKKLQNALKNRFEKFEILPYYYDPHSKLLVLHGNQFDVINRFTVDRKTKKVIPPLGDYIARYMMINFDSQVVNFAPEDVIRDYDNVRPLLDVFHWFDYVTEIYDLSVDLVELWLKSFLSMLKTREARKWMKNNFPRTHWLSKVFVNRFGGVELGKVLVRSIYTLRKLRRVDYLQKWAKSILKGNLRWKEFMTGYSGDLHEVEEVDILVMGHVHHFAYRIVPTTQGKKLYVNCGSWRPVLEKLGIRKRHGFHRKAELPKIIMDFSGKNVEVKASITNVLGKIQGGDL | not soluble
16 | MAKRVPNMELFVFCEDLEFTQNLDLGYPFMDMTTRDKEEEAYWDMLLMQSCQHGIIANSTYSWWAAYLIENPEKIIIGPKHWLFGHENILCKEWVKIESHFEVKSQKYNALEHHHHHH | soluble
17 | MTAQDYLNGKLAAANGPLADDWKNLKELWEKKLWHQLTVLTRSLVKKPQFVASTDMHEFYRLFVAEWELRVNPLQLVEICISIAQNIATKDKQKSMEFLSKIGNVINKDKIAVARLHTGEIEARLENKDKNGQIIDLKSIRTQIDSTQHEVDSLVGVTEVHAPFYRVSSLYLREVGDFAGYYREALRYLGVEDANNLTTEQKQVHAVLLGFAALLGENVHNFGELLAHPILKSLEGTRERWIVDVLLAFNSGDLTRFFSLEGDWGGWDDLKKQKDFLTAKIRLMAVMELAVSRPTKARSVSFKEIATKCQIPFDEVEFLVMKALSKDLIRGDINQVEQVVYVTWVQPRVLDNPQIMQMATRISAWRNDVNSMEGIVSKEAREILTQN | not soluble
18 | MKAQVEYIILPFKKRLDGFTYWQRELEPAIHPALKAYVKAENATGGVSSVMIFWEIARNTDHFCSDFKTDRDVRMFLTLYFWKYLCYFANIDFYTGQDKTEEILKGEAD | not soluble
19 | MSLARLEPWAEKLTSDPATCRHLIEEFGSPVNVLHSGSMPRNINELVDAGIQMGVDTRIFFARKANKGLTFVDAVKDTGHGVDVASERELSQVLNRGVPGERIILSAAIKPDRLLALAIENGVIISVDSRDELDRISALVGDRVARVAPRVAPDPAVLPPTRFGERAADWGNRLTEVIPGVDIVGLHVHLHGYAAKDRALALQECCQLVDSLRECGHSPQFIDLGGGVPMSYIESEEDWIRYQSAKSATSAGYAESFTWKDDPLSNTYPFYQTPVRGNWLKDVLSKGVAQMLIDRGLRLHLEPGRSLLDGCGVTLAEVAFVKTRSDGLPLVGLAMNRTQCRTTSDDFLIDPLHITDGDVGEEIEAYLVGAYCIEDELILRRRIRFPRGVKPGDIIGIPNTAGYFMHILESASHQIPLAKNVVWPEGQLDDIDADEGHHHHHH | soluble
